14 molecules from PMC9163516, “Convergent evolution of a parasite-encoded complement control protein-scaffold to mimic binding of mammalian TGF-β to its receptors, TβRI and TβRII” (The Journal of Biological Chemistry, 2022) can be followed below.

To fix the notation:
B1: TβRI ectodomain (receptor)
chain: LQCFCHLCTKDNFTCVTDGLCFVSVTETTDKVIHNSMCIAEIDLIPRDRPFVCAPSSKTGSVTTTYCCNQDHCNKIELPTTVKSSPGLGPVEL
notes: also called TGF-β type I receptor
B14: TGM-D2 (domain or fragment)
chain: RCSPLPTNDTVSFEYLKATVNPGIIFNITVHPDASGKYPELTYIKRICKNFPTDSNVQGHIIGMCYNAEWQFSSTPTCPAS
modifications: refolded from E. coli, disulfide-bonded; limits set between D1 (ends at 95) and D3 (starts at about 177); vector residues left after thrombin cleavage omitted

Holding throughout (conditions): both partners purified
The test “TGM-D2” addresses B14. The experiment in a line: NMR titration; 1H-15N HSQC of 15N TGM-D2 or 15N TGM-D3 with 0 to 1.4 equivalents of unlabeled TβRI; 25 mM sodium phosphate, 50 mM NaCl, pH 7.0, 310 K (legend of Figure 3).
For another test, the target named is T1, TβRII E142Q (UniProt P37173 23-166, E142Q).
T1 construct: also called Glu142Gln
The experiment in a line: SPR; biotinylated avi-tagged TGM-D3 captured (50-150 RU) on a neutravidin-coated CM-5 chip, TβRII and its variants injected; 25 mM Hepes, pH 7.4, 150 mM NaCl, 0.05% surfactant P20, 100 µl/min; 1:1 kinetic fit of duplicate or triplicate injection series. A general note: Surface plasmon resonance follows binding to a sensor surface in real time, without labels.

A further test concerns the target T2, TβRII S75L (UniProt P37173 23-166, S75L).
T2 construct: also called Ser75Leu
The test is described as above.

Another test addresses T3, TβRII D55N (UniProt P37173 23-166, D55N).
T3 construct: also called Asp55Asn
The description is as above.

Test [1] deals with T4, TβRII ectodomain (UniProt P37173 23-166).
T4 construct: also called WT TβRII; TGF-β type II receptor
The test is described as above.

The target in the next test is T5, TβRII I76A (UniProt P37173 23-166, I76A).
T5 construct: also called Ile76Ala
Described as above.

A further test has as its target T6, TβRII I73A (UniProt P37173 23-166, I73A).
T6 construct: also called Ile73Ala
The description is as above.

In test [2] the target is T7, biotinylated avi-tagged TβRII (UniProt P37173 23-166, a single biotin on the avi tag (BirA)).
T7 construct: also called TβRII (SPR surface)
Nature of the test: SPR; biotinylated avi-tagged TβRII captured (50-150 RU) on a neutravidin-coated CM-5 chip, TGM-D3 and its variants injected; 25 mM Hepes, pH 7.4, 150 mM NaCl, 0.05% surfactant P20, 100 µl/min; 1:1 kinetic fit of duplicate or triplicate injection series.

Test [3] has as its target T4, TβRII ectodomain. The experiment in a line: ITC; TGM construct in the syringe (300-320 µM), 15 µM TβRII in the cell; 25 mM sodium phosphate, 50 mM NaCl, pH 6.0, 35 °C; 1:1 model (Nitpic, Sedphat).
For the test “TβRI ectodomain”, the target named is B1. Nature of the test: ITC; TGM construct titrated into TβRI in the cell; 25 mM Hepes, 50 mM NaCl, 0.05% NaN3, pH 7.5, 25 °C; 1:1 model. In general terms: ITC needs no label: the signal is the heat of the interaction.

T6 sequence (P37173 23-166 I73A): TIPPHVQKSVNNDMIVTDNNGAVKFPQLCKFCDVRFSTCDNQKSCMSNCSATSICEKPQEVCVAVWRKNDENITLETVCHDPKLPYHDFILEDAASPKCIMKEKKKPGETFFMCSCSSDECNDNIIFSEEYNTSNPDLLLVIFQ
T5 sequence (P37173 23-166 I76A): as the sequence (P37173 23-166 I73A) above, with A51I, I54A counted along it
T3 sequence (P37173 23-166 D55N): as the sequence (P37173 23-166 I73A) above, with D33N, A51I counted along it
T2 sequence (P37173 23-166 S75L): as the sequence (P37173 23-166 I73A) above, with A51I, S53L counted along it
T1 sequence (P37173 23-166 E142Q): as the sequence (P37173 23-166 I73A) above, with A51I, E120Q counted along it
T4 sequence (P37173 23-166): as the sequence (P37173 23-166 I73A) above, with A51I counted along it
T7 sequence (P37173 23-166): as the sequence (P37173 23-166 I73A) above, with A51I counted along it

Turning to B1, the stoichiometry N (usually a count of units in the complex or per binding partner) with TGM-D2 amounted to 1.

B2: biotinylated avi-tagged TGM-D3 (domain or fragment)
chain: GSGTGCPPLPDDGIVFYEYYGYAGDRHTVGPVVTKDSSGNYPSPTHARRRCRALSQEADPGEFVAICYKSGTTGESHWEYYKNIGKCPDP
modifications: a single biotin on the avi tag (BirA)
notes: also called TGM-D3 (SPR surface); not shown: Thioredoxin, N-terminal, cleaved; His6, N-terminal, cleaved
As for B2, the Kd (commonly the free concentration of one partner at which half of the binding sites on the other are occupied at equilibrium, for simple one-to-one binding) with TβRII E142Q came out at 17 ± 1 µM; with TβRII S75L it was 310 ± 30 µM; with TβRII D55N, 63 ± 1 µM; with TβRII ectodomain [1] it was 1.6 ± 0.1 µM; with TβRII I76A, 26 ± 1 µM; with TβRII I73A, 6.9 ± 0.1 µM. Further, the dissociation rate constant (koff) – broadly, the first-order rate constant of dissociation – was determined as 10 ± 10 s⁻¹ with TβRII E142Q; 3.9 ± 0.9 s⁻¹ in the test with TβRII S75L; 3.1 ± 0.1 s⁻¹ in the test with TβRII D55N; 0.7 ± 0.1 s⁻¹ in the test with TβRII ectodomain [1]; 1.2 ± 0.1 s⁻¹ with TβRII I76A; 1.1 ± 0.1 s⁻¹ in the test with TβRII I73A. Besides, the kon – broadly, the second-order rate constant of association – with TβRII E142Q was determined as 410000 M⁻¹ s⁻¹; with TβRII S75L it was 13000 M⁻¹ s⁻¹; with TβRII D55N it was 50000 M⁻¹ s⁻¹; with TβRII ectodomain [1], 410000 M⁻¹ s⁻¹; with TβRII I76A, 47000 M⁻¹ s⁻¹; with TβRII I73A, 160000 M⁻¹ s⁻¹.

B3: TGM-D3 (domain or fragment)
chain: GSGTGCPPLPDDGIVFYEYYGYAGDRHTVGPVVTKDSSGNYPSPTHARRRCRALSQEADPGEFVAICYKSGTTGESHWEYYKNIGKCPDP
notes: also called WT TGM-D3; domain 3 of H. polygyrus TGF-β mimic; not shown: Thioredoxin, N-terminal, cleaved; His6, N-terminal, cleaved
With B3, in test [2], the Kd is 1.6 ± 0.1 µM, the off-rate (koff) is 0.26 ± 0.01 s⁻¹ and the on-rate (kon) was determined as 160000 M⁻¹ s⁻¹. In addition, in the test with TβRII ectodomain [3], the dissociation constant Kd was determined as 1.2 µM and the “stoichiometry N” value came out at 1.1.

B4: TGM-D3 I256A (domain or fragment)
chain: GSGTGCPPLPDDGIVFYEYYGYAGDRHTVGPVVTKDSSGNYPSPTHARRRCRALSQEADPGEFVAICYKSGTTGESHWEYYKNAGKCPDP
notes: also called Ile256Ala; not shown: Thioredoxin, N-terminal, cleaved; His6, N-terminal, cleaved
Take B4: in test [2], the Kd turned out to be 1.6 ± 0.1 µM, the off-rate constant (koff) came out at 1.4 ± 0.1 s⁻¹ and the kon was 880000 M⁻¹ s⁻¹.

B5: TGM-D3 K258A (domain or fragment)
chain: GSGTGCPPLPDDGIVFYEYYGYAGDRHTVGPVVTKDSSGNYPSPTHARRRCRALSQEADPGEFVAICYKSGTTGESHWEYYKNIGACPDP
notes: also called Lys258Ala; not shown: Thioredoxin, N-terminal, cleaved; His6, N-terminal, cleaved
In the case of B5, in test [2], the Kd was determined as 2.7 ± 0.1 µM, the dissociation rate constant (koff) was 1.2 ± 0.1 s⁻¹ and the kon turned out to be 430000 M⁻¹ s⁻¹.

B6: TGM-D3 N255A (domain or fragment)
chain: GSGTGCPPLPDDGIVFYEYYGYAGDRHTVGPVVTKDSSGNYPSPTHARRRCRALSQEADPGEFVAICYKSGTTGESHWEYYKAIGKCPDP
notes: also called Asn255Ala; not shown: Thioredoxin, N-terminal, cleaved; His6, N-terminal, cleaved
In [2], B6 gave a Kd of 2.7 ± 0.1 µM, a koff of 1.3 ± 0.1 s⁻¹ and a kon of 480000 M⁻¹ s⁻¹.

B7: TGM-D3 F235A (domain or fragment)
chain: GSGTGCPPLPDDGIVFYEYYGYAGDRHTVGPVVTKDSSGNYPSPTHARRRCRALSQEADPGEAVAICYKSGTTGESHWEYYKNIGKCPDP
notes: also called Phe235Ala; not shown: Thioredoxin, N-terminal, cleaved; His6, N-terminal, cleaved
In [2], B7 came in with an equilibrium dissociation constant (Kd) of 4.1 ± 0.1 µM, a koff of 1.8 ± 0.2 s⁻¹ and a kon of 450000 M⁻¹ s⁻¹.

B8: TGM-D3 I238A (domain or fragment)
chain: GSGTGCPPLPDDGIVFYEYYGYAGDRHTVGPVVTKDSSGNYPSPTHARRRCRALSQEADPGEFVAACYKSGTTGESHWEYYKNIGKCPDP
notes: not shown: Thioredoxin, N-terminal, cleaved; His6, N-terminal, cleaved
On to B8, for which, in test [2], the equilibrium dissociation constant (Kd) stood at 25 ± 1 µM, the dissociation rate constant (koff) stood at 2.3 ± 0.1 s⁻¹ and the kon is 94000 M⁻¹ s⁻¹.

B9: TGM-D3 K254A (domain or fragment)
chain: GSGTGCPPLPDDGIVFYEYYGYAGDRHTVGPVVTKDSSGNYPSPTHARRRCRALSQEADPGEFVAICYKSGTTGESHWEYYANIGKCPDP
notes: also called Lys254Ala; not shown: Thioredoxin, N-terminal, cleaved; His6, N-terminal, cleaved
With B9, in test [2], the Kd turned out to be 35 ± 1 µM, the off-rate (koff) is 12 ± 6 s⁻¹ and the kon came to 300000 M⁻¹ s⁻¹.

B10: TGM-D3 Y252A (domain or fragment)
chain: GSGTGCPPLPDDGIVFYEYYGYAGDRHTVGPVVTKDSSGNYPSPTHARRRCRALSQEADPGEFVAICYKSGTTGESHWEAYKNIGKCPDP
notes: as for B8
In test [2], B10 had a Kd of 21 ± 1 µM, an off-rate (koff) of 1.7 ± 0.1 s⁻¹ and an on-rate constant (kon) of 78000 M⁻¹ s⁻¹.

B11: TGM-D3 H199A (domain or fragment)
chain: GSGTGCPPLPDDGIVFYEYYGYAGDRATVGPVVTKDSSGNYPSPTHARRRCRALSQEADPGEFVAICYKSGTTGESHWEYYKNIGKCPDP
notes: also called His199Ala; not shown: Thioredoxin, N-terminal, cleaved; His6, N-terminal, cleaved
On to B11, for which, in test [2], the affinity, expressed as Kd, was 3 ± 0.1 µM; the koff was 0.98 ± 0.01 s⁻¹; the association rate constant (kon) was 330000 M⁻¹ s⁻¹.

B12: TGM-D3 V236A (domain or fragment)
chain: GSGTGCPPLPDDGIVFYEYYGYAGDRHTVGPVVTKDSSGNYPSPTHARRRCRALSQEADPGEFAAICYKSGTTGESHWEYYKNIGKCPDP
notes: also called Val236Ala; not shown: Thioredoxin, N-terminal, cleaved; His6, N-terminal, cleaved
As for B12, in test [2], the dissociation constant (Kd) amounted to 4.6 ± 0.1 µM, the dissociation rate constant (koff) turned out to be 1.8 ± 0.1 s⁻¹ and the on-rate constant (kon) came to 380000 M⁻¹ s⁻¹.

B13: TGM-D12 (domain or fragment)
chain: DDSGCMPFSDEAATYKYVAKGPKNIEIPAQIDNSGMYPDYTHVKRFCKGLHGEDTTGWFVGICLASQWYYYEGVQECDDRRCSPLPTNDTVSFEYLKATVNPGIIFNITVHPDASGKYPELTYIKRICKNFPTDSNVQGHIIGMCYNAEWQFSSTPTCPAS
modifications: refolded from E. coli, disulfide-bonded; start from the listed D1 range (16-95), end set just before D3 (Cys178 is the first D3 cysteine; 7SXB places D3 at about 177-262); vector residues left after …
B13: in the test with TβRI ectodomain, the Kd was 0.025 µM, the dH was -19 kcal/mol and the “stoichiometry N” value is approximately 1.

In the case of B14, in the test with TβRI ectodomain, the “fold increase of KD against TGM-FL” value is approximately 50 fold and the “stoichiometry N” value was approximately 0.5.
